Results on one substance are retold here after doi:10.1101/2025.01.10.632409.

The target in the test is TatC from Pisum sativum (thylakoidal) (Pisum sativum (endogenous in pea thylakoids)). Description: native gel or EMSA. Background: Mobility shift assays separate free from complexed probe on a gel.

The stoichiometry N is the number of molecules, sites or subunits per partner or assembly. On to “TatC from Pisum sativum (thylakoidal) (natural protein)”, for which the stoichiometry N was 3.
